Laboratory results: patent US20240117018A1

How the values were obtained:
Experiment in all cases: cell-based or functional assay
[1] = target: HIV-1 Env pseudovirus ZM109F.PB4 (HIV-1)
[2] = target: HIV-1 Env pseudovirus Ce1176_A3 (HIV-1)
[3] = target: HIV-1 Env pseudovirus Ce0393_C3 (HIV-1)
[4] = target: HIV-1 Env pseudovirus HIV-16845-2.22 (HIV-1)
[5] = target: HIV-1 Env pseudovirus 6535.3 (HIV-1)
[6] = target: HIV-1 Env pseudovirus 6244_13_B5_4576 (HIV-1)
[7] = target: HIV-1 Env pseudovirus CAP45.2.00.G3 (HIV-1)
[8] = target: HIV-1 Env pseudovirus 7030102001E5(Rev-) (HIV-1)
[9] = target: HIV-1 Env pseudovirus Q842.d12 (HIV-1)
[10] = target: HIV-1 Env pseudovirus HIV-0013095-2.11 (HIV-1)
[11] = target: HIV-1 Env pseudovirus Ce0682_E4 (HIV-1)
[12] = target: HIV-1 Env pseudovirus 1012_11_TC21_3257 (HIV-1)
[13] = target: Env of HIV-1 pseudovirus Ce2060_G9 (HIV-1)
[14] = target: Env of HIV-1 pseudovirus Ce0682_E4 (HIV-1)
[15] = target: Env of HIV-1 pseudovirus Ce2010_F5 (HIV-1)
[16] = target: Env of HIV-1 pseudovirus TRJO4551.58 (HIV-1)
[17] = target: Env of HIV-1 pseudovirus Du156.12 (HIV-1)
[18] = target: Env of HIV-1 pseudovirus HIV-0013095-2.11 (HIV-1)
[19] = target: Env of HIV-1 pseudovirus 9004SS_A3_4 (HIV-1)
[20] = target: Env of HIV-1 pseudovirus PVO.4 (HIV-1)
[21] = target: Env of HIV-1 pseudovirus Q769.d22 (HIV-1)
[22] = target: Env of HIV-1 pseudovirus 6535.3 (HIV-1)
[23] = target: Env of HIV-1 pseudovirus MS208.A1 (HIV-1)
[24] = target: Env of HIV-1 pseudovirus 1012_11_TC21_3257 (HIV-1)
[25] = target: Env of HIV-1 pseudovirus CAAN5342.A2 (HIV-1)
[26] = target: Env of HIV-1 pseudovirus 263-8 (HIV-1)
[27] = target: Env of HIV-1 pseudovirus 191084 B7-19 (HIV-1)
[28] = target: Env of HIV-1 pseudovirus T257-31 (HIV-1)

N49P11 (antibody)
IC50 [1]: 5.2 mg/L | IC80 [1]: 19.4 mg/L | MPI [1]: 100 | IC50 [2]: 0.946 mg/L | IC80 [2]: 6.05 mg/L | MPI [2]: 100 | IC50 [3]: 1.51 mg/L | IC80 [3]: 9.71 mg/L | MPI [3]: 100 | IC50 [4]: 1.72 mg/L | IC80 [4]: 8.15 mg/L | MPI [4]: 100 | IC50 [5]: 8.22 mg/L | IC80 [5]: 17.2 mg/L | MPI [5]: 100 | IC50 [6]: 1.12 mg/L | IC80 [6]: 5.45 mg/L | MPI [6]: 100 | IC50 [7]: 5.25 mg/L | IC80 [7]: 24 mg/L | MPI [7]: 100 | IC50 [8]: 0.635 mg/L | IC80 [8]: 2.29 mg/L | MPI [8]: 100 | IC50 [9]: 0.027 mg/L | IC80 [9]: 0.103 mg/L | MPI [9]: 100 | IC50 [10]: 5.85 mg/L | IC80 [10]: 17.8 mg/L | MPI [10]: 100 | IC50 [11]: 0.091 mg/L | IC80 [11]: 0.387 mg/L | MPI [11]: 100 | IC50 [12]: 10.6 mg/L | IC80 [12]: 29.3 mg/L | MPI [12]: 100

10E8 (antibody)
IC50 [13]: 3.52 mg/L | IC80 [13]: > 10 mg/L | IC50 [14]: 1.22 mg/L | IC80 [14]: 7.71 mg/L | IC50 [15]: 1.84 mg/L | IC80 [15]: 8.61 mg/L | IC50 [16]: 0.475 mg/L | IC80 [16]: 4.78 mg/L | IC50 [17]: 0.034 mg/L | IC80 [17]: 0.144 mg/L | IC50 [18]: 0.031 mg/L | IC80 [18]: 0.213 mg/L | IC50 [19]: 1.16 mg/L | IC80 [19]: 6.76 mg/L | IC50 [20]: 0.747 mg/L | IC80 [20]: > 10 mg/L | IC50 [21]: 1.67 mg/L | IC80 [21]: 10 mg/L | IC50 [22]: 0.081 mg/L | IC80 [22]: 1.32 mg/L | IC50 [23]: 0.609 mg/L | IC80 [23]: 3.72 mg/L | IC50 [24]: 0.244 mg/L | IC80 [24]: 4.21 mg/L | IC50 [25]: 1.28 mg/L | IC80 [25]: 9.28 mg/L | IC50 [26]: 0.196 mg/L | IC80 [26]: 1.73 mg/L | IC50 [27]: 5.16 mg/L | IC80 [27]: > 10 mg/L | IC50 [28]: 0.88 mg/L | IC80 [28]: 5.78 mg/L

PG16 (antibody)
IC50 [13]: 0.075 mg/L | IC80 [13]: 1.71 mg/L | IC50 [14]: 0.026 mg/L | IC80 [14]: 0.202 mg/L | IC50 [15]: > 50 mg/L | IC80 [15]: > 50 mg/L | IC50 [16]: 1.01 mg/L | IC80 [16]: 24.5 mg/L | IC50 [17]: 0.006 mg/L | IC80 [17]: 0.026 mg/L | IC50 [18]: 0.002 mg/L | IC80 [18]: 0.006 mg/L | IC50 [19]: 0.02 mg/L | IC80 [19]: 0.111 mg/L | IC50 [20]: 15.3 mg/L | IC80 [20]: > 50 mg/L | IC50 [21]: 0.005 mg/L | IC80 [21]: 0.018 mg/L | IC50 [22]: 0.653 mg/L | IC80 [22]: > 50 mg/L | IC50 [23]: 0.002 mg/L | IC80 [23]: 0.004 mg/L | IC50 [24]: 0.03 mg/L | IC80 [24]: 0.219 mg/L | IC50 [25]: 1.83 mg/L | IC80 [25]: 33 mg/L | IC50 [26]: 0.347 mg/L | IC80 [26]: 4.97 mg/L | IC50 [27]: 0.024 mg/L | IC80 [27]: 0.238 mg/L | IC50 [28]: 0.007 mg/L | IC80 [28]: 0.021 mg/L

PG9 (antibody)
IC50 [13]: 0.045 mg/L | IC80 [13]: 0.172 mg/L | IC50 [14]: 0.196 mg/L | IC80 [14]: 0.698 mg/L | IC50 [15]: > 50 mg/L | IC80 [15]: > 50 mg/L | IC50 [16]: 0.503 mg/L | IC80 [16]: 4.06 mg/L | IC50 [17]: 0.026 mg/L | IC80 [17]: 0.19 mg/L | IC50 [18]: 0.01 mg/L | IC80 [18]: 0.03 mg/L | IC50 [19]: 0.088 mg/L | IC80 [19]: 0.251 mg/L | IC50 [20]: 10.6 mg/L | IC80 [20]: > 50 mg/L | IC50 [21]: 0.025 mg/L | IC80 [21]: 0.068 mg/L | IC50 [22]: 0.176 mg/L | IC80 [22]: 0.627 mg/L | IC50 [23]: 0.005 mg/L | IC80 [23]: 0.014 mg/L | IC50 [24]: 0.172 mg/L | IC80 [24]: 0.605 mg/L | IC50 [25]: 4.6 mg/L | IC80 [25]: 27 mg/L | IC50 [26]: 0.293 mg/L | IC80 [26]: 1.05 mg/L | IC50 [27]: 0.043 mg/L | IC80 [27]: 0.202 mg/L | IC50 [28]: 0.037 mg/L | IC80 [28]: 0.124 mg/L

N49P7.2 (antibody)
IC50 [1]: 0.065 mg/L | IC80 [1]: 0.321 mg/L | MPI [1]: 99 | IC50 [2]: 0.332 mg/L | IC80 [2]: 1.08 mg/L | MPI [2]: 100 | IC50 [3]: 0.137 mg/L | IC80 [3]: 0.368 mg/L | MPI [3]: 100 | IC50 [4]: 3.91 mg/L | IC80 [4]: 18.2 mg/L | MPI [4]: 98 | IC50 [5]: 0.152 mg/L | IC80 [5]: 0.784 mg/L | MPI [5]: 100 | IC50 [6]: 0.331 mg/L | IC80 [6]: 1.04 mg/L | MPI [6]: 100 | IC50 [7]: 0.162 mg/L | IC80 [7]: 2.49 mg/L | MPI [7]: 95 | IC50 [8]: 0.313 mg/L | IC80 [8]: 1.03 mg/L | MPI [8]: 100 | IC50 [9]: 0.045 mg/L | IC80 [9]: 0.2 mg/L | MPI [9]: 100 | IC50 [10]: 0.183 mg/L | IC80 [10]: 0.931 mg/L | MPI [10]: 97 | IC50 [11]: 0.067 mg/L | IC80 [11]: 0.233 mg/L | MPI [11]: 100 | IC50 [12]: 0.06 mg/L | IC80 [12]: 0.285 mg/L | MPI [12]: 100

N49P18.1 (antibody)
IC50 [1]: 26.6 mg/L | IC80 [1]: > 50 mg/L | MPI [1]: 69 | IC50 [2]: 32.5 mg/L | IC80 [2]: > 50 mg/L | MPI [2]: 61 | IC50 [3]: 10.3 mg/L | IC80 [3]: 24.8 mg/L | MPI [3]: 92 | IC50 [4]: > 50 mg/L | IC80 [4]: > 50 mg/L | MPI [4]: 23 | IC50 [5]: 2.06 mg/L | IC80 [5]: 11.4 mg/L | MPI [5]: 100 | IC50 [6]: 33.4 mg/L | IC80 [6]: > 50 mg/L | MPI [6]: 61 | IC50 [7]: 5.14 mg/L | IC80 [7]: 33.1 mg/L | MPI [7]: 88 | IC50 [8]: 6.35 mg/L | IC80 [8]: 17.7 mg/L | MPI [8]: 98 | IC50 [9]: 3.04 mg/L | IC80 [9]: 8.13 mg/L | MPI [9]: 100 | IC50 [10]: > 50 mg/L | IC80 [10]: > 50 mg/L | MPI [10]: 48 | IC50 [11]: 3.95 mg/L | IC80 [11]: 21.1 mg/L | MPI [11]: 96 | IC50 [12]: 16.1 mg/L | IC80 [12]: > 50 mg/L | MPI [12]: 79
